From US20120316071A1

Columns and labels:
[1] = target: Recombinant Human DLL4 (delta-like protein 4) (human) (UniProt Q9NR61); assay: ELISA, Fab on coated recombinant human DLL4, signal minus noise
[2] = target: Recombinant Human DLL4 (delta-like protein 4) (human) (UniProt Q9NR61); assay: ECL (MSD electrochemiluminescence) binding assay, Fab on immobilised recombinant human DLL4
[3] = target: rHuman Notch-1/Fc Chimera, CF (R&D Systems Cat#3647-TK) (human) (UniProt P46531); assay: ECL multispot (MSD) binding assay, antigen spotted on plate, Fab in solution; blank spot 321
[4] = target: rHuman HGF R/c-MET/Fc Chimera, CF (R&D Systems Cat#358-MT/CF) (human) (UniProt P08581); assay: as above
[5] = target: rHuman CD44/Fc Chimera, CF (R&D Systems Cat#3660-CD) (human) (UniProt P16070); assay: as above
[6] = target: rHuman IGF-1 sR, CF (R&D Systems Cat#391-GR) (human) (UniProt P08069); assay: as above
[7] = target: rHuman ErbB2/Fc Chimera, CF (R&D Systems Cat#1129-ER) (human) (UniProt P04626); assay: as above
[8] = target: rHuman P-Cadherin/Fc Chimera, CF (R&D Systems Cat#861-PC) (human) (UniProt P22223); assay: as above
[9] = target: rHuman EGF R/Fc Chimera, CF (R&D Systems Cat#344-ER) (human) (UniProt P00533); assay: as above
[10] = target: rHuman Erythropoietin R/Fc Chimera, CF (R&D Systems Cat#963-ER) (human) (UniProt P19235); assay: ECL multispot (MSD) binding assay, antigen spotted on plate, Fab in solution; blank spot 277
[11] = target: rHuman Notch-1/Fc Chimera, CF (R&D Systems Cat#3647-TK) (human) (UniProt P46531); assay: as above
[12] = target: rHuman HGF R/c-MET/Fc Chimera, CF (R&D Systems Cat#358-MT/CF) (human) (UniProt P08581); assay: as above
[13] = target: rHuman CD44/Fc Chimera, CF (R&D Systems Cat#3660-CD) (human) (UniProt P16070); assay: as above
[14] = target: rHuman IGF-1 sR, CF (R&D Systems Cat#391-GR) (human) (UniProt P08069); assay: as above
[15] = target: rHuman ErbB2/Fc Chimera, CF (R&D Systems Cat#1129-ER) (human) (UniProt P04626); assay: as above
[16] = target: rHuman P-Cadherin/Fc Chimera, CF (R&D Systems Cat#861-PC) (human) (UniProt P22223); assay: as above
[17] = target: rHuman EGF R/Fc Chimera, CF (R&D Systems Cat#344-ER) (human) (UniProt P00533); assay: as above
[18] = target: rHuman Erythropoietin R/Fc Chimera, CF (R&D Systems Cat#963-ER) (human) (UniProt P19235); assay: ECL multispot (MSD) binding assay, antigen spotted on plate, Fab in solution; blank spot 215
[19] = target: rHuman Notch-1/Fc Chimera, CF (R&D Systems Cat#3647-TK) (human) (UniProt P46531); assay: as above
[20] = target: rHuman HGF R/c-MET/Fc Chimera, CF (R&D Systems Cat#358-MT/CF) (human) (UniProt P08581); assay: as above
[21] = target: rHuman CD44/Fc Chimera, CF (R&D Systems Cat#3660-CD) (human) (UniProt P16070); assay: as above
[22] = target: rHuman IGF-1 sR, CF (R&D Systems Cat#391-GR) (human) (UniProt P08069); assay: as above
[23] = target: rHuman ErbB2/Fc Chimera, CF (R&D Systems Cat#1129-ER) (human) (UniProt P04626); assay: as above
[24] = target: rHuman P-Cadherin/Fc Chimera, CF (R&D Systems Cat#861-PC) (human) (UniProt P22223); assay: as above
[25] = target: rHuman EGF R/Fc Chimera, CF (R&D Systems Cat#344-ER) (human) (UniProt P00533); assay: as above
[26] = target: rHuman Notch-1/Fc Chimera, CF (R&D Systems Cat#3647-TK) (human) (UniProt P46531); assay: ECL multispot (MSD) binding assay, antigen spotted on plate, Fab in solution; blank spot 306
[27] = target: rHuman HGF R/c-MET/Fc Chimera, CF (R&D Systems Cat#358-MT/CF) (human) (UniProt P08581); assay: as above
[28] = target: rHuman CD44/Fc Chimera, CF (R&D Systems Cat#3660-CD) (human) (UniProt P16070); assay: as above
[29] = target: rHuman IGF-1 sR, CF (R&D Systems Cat#391-GR) (human) (UniProt P08069); assay: as above
[30] = target: rHuman ErbB2/Fc Chimera, CF (R&D Systems Cat#1129-ER) (human) (UniProt P04626); assay: as above
[31] = target: rHuman P-Cadherin/Fc Chimera, CF (R&D Systems Cat#861-PC) (human) (UniProt P22223); assay: as above
[32] = target: rHuman EGF R/Fc Chimera, CF (R&D Systems Cat#344-ER) (human) (UniProt P00533); assay: as above
[33] = target: rHuman Erythropoietin R/Fc Chimera, CF (R&D Systems Cat#963-ER) (human) (UniProt P19235); assay: ECL multispot (MSD) binding assay, antigen spotted on plate, Fab in solution; blank spot 237
[34] = target: rHuman Notch-1/Fc Chimera, CF (R&D Systems Cat#3647-TK) (human) (UniProt P46531); assay: as above
[35] = target: rHuman HGF R/c-MET/Fc Chimera, CF (R&D Systems Cat#358-MT/CF) (human) (UniProt P08581); assay: as above
[36] = target: rHuman CD44/Fc Chimera, CF (R&D Systems Cat#3660-CD) (human) (UniProt P16070); assay: as above
[37] = target: rHuman IGF-1 sR, CF (R&D Systems Cat#391-GR) (human) (UniProt P08069); assay: as above
[38] = target: rHuman ErbB2/Fc Chimera, CF (R&D Systems Cat#1129-ER) (human) (UniProt P04626); assay: as above
[39] = target: rHuman P-Cadherin/Fc Chimera, CF (R&D Systems Cat#861-PC) (human) (UniProt P22223); assay: as above
[40] = target: rHuman EGF R/Fc Chimera, CF (R&D Systems Cat#344-ER) (human) (UniProt P00533); assay: as above
[41] = target: rHuman Notch-1/Fc Chimera, CF (R&D Systems Cat#3647-TK) (human) (UniProt P46531); assay: ECL multispot (MSD) binding assay, antigen spotted on plate, Fab in solution; blank spot 349
[42] = target: rHuman HGF R/c-MET/Fc Chimera, CF (R&D Systems Cat#358-MT/CF) (human) (UniProt P08581); assay: as above
[43] = target: rHuman CD44/Fc Chimera, CF (R&D Systems Cat#3660-CD) (human) (UniProt P16070); assay: as above
[44] = target: rHuman IGF-1 sR, CF (R&D Systems Cat#391-GR) (human) (UniProt P08069); assay: as above
[45] = target: rHuman ErbB2/Fc Chimera, CF (R&D Systems Cat#1129-ER) (human) (UniProt P04626); assay: as above
[46] = target: rHuman P-Cadherin/Fc Chimera, CF (R&D Systems Cat#861-PC) (human) (UniProt P22223); assay: as above
[47] = target: rHuman EGF R/Fc Chimera, CF (R&D Systems Cat#344-ER) (human) (UniProt P00533); assay: as above

Fab VH5-51_IGHD5-18*01>3_IGHJ4*01 G100K/G104T T58D/K & V3-4_IGLJ1*01
ELISA (Signal-Noise) [1]: 0.03 | ECL signal [2]: 823

Fab VH5-51_IGHD5-18*01>3_IGHJ4*01 G100K/G104T D57A & V3-4_IGLJ1*01
ECL signal [3]: 523 | ECL signal [4]: 1130 | ECL signal [5]: 600 | ECL signal [6]: 982 | ECL signal [7]: 1200 | ECL signal [8]: 365 | ECL signal [9]: 915

Fab VH5-51_IGHD5-18*01>3_IGHJ4*01 G100K/G104T Y52A & V3-4_IGLJ1*01
ECL signal [10]: 584 | ECL signal [11]: 566 | ECL signal [12]: 803 | ECL signal [13]: 591 | ECL signal [14]: 827 | ECL signal [15]: 989 | ECL signal [16]: 334 | ECL signal [17]: 745

Fab VH5-51_IGHD5-18*01>3_IGHJ4*01 G100K/G104T I51A & V3-4_IGLJ1*01
ECL signal [18]: 497 | ECL signal [19]: 612 | ECL signal [20]: 875 | ECL signal [21]: 517 | ECL signal [22]: 828 | ECL signal [23]: 1090 | ECL signal [24]: 432 | ECL signal [25]: 803

Fab VH5-51_IGHD5-18*01>3_IGHJ4*01 G100K/G104T D55A & V3-4_IGLJ1*01
ECL signal [26]: 683 | ECL signal [27]: 856 | ECL signal [28]: 606 | ECL signal [29]: 898 | ECL signal [30]: 1030 | ECL signal [31]: 310 | ECL signal [32]: 729

Fab VH5-51_IGHD5-18*01>3_IGHJ4*01 G100K/G104T I50A & V3-4_IGLJ1*01
ECL signal [33]: 523 | ECL signal [34]: 443 | ECL signal [35]: 822 | ECL signal [36]: 632 | ECL signal [37]: 785 | ECL signal [38]: 925 | ECL signal [39]: 343 | ECL signal [40]: 794

Fab VH5-51_IGHD5-18*01>3_IGHJ4*01 G100K/G104T P53A & V3-4_IGLJ1*01
ECL signal [41]: 536 | ECL signal [42]: 1000 | ECL signal [43]: 556 | ECL signal [44]: 943 | ECL signal [45]: 1140 | ECL signal [46]: 424 | ECL signal [47]: 976
